Publication PMC5290283

Biological target: C-terminal region of APC (APC-CT), FLAG-tagged
Assay: AlphaScreen
Details: Donor: Gag MA-GST-biotin; acceptor: APC(CT)-FLAG; n=3; parent: est. 2.1; read off a plot

Substance | response
Fyn(10)WT (wild-type protein of the AlphaScreen with MA HBR mutants) 6A2T: HBR segment […] -> […] (K>A; K>A; R>A; R>A; K>A; K>A; K>T; K>T, in segment order) | 0.25 10^3 RLU
Fyn(10)WT (wild-type protein of the AlphaScreen with MA HBR mutants) RKswitch: HBR segment […] -> […] (K>R; K>R; R>K; R>K; K>R; K>R; K>R; K>R, in segment order) | 2.3 10^3 RLU
